Results reported in publication PMC10397247.
Where two headings read alike, the source gives them in different places. One block for each binder: values may come before it.

Assays:
[1] = biological target: T1, P3A-bH; assay: two-hybrid library CCNG1;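 further: natural log of median RNA to DNA barcode read ratio; higher means stronger binding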
T1 chain: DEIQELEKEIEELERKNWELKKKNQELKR

[2] = biological target: T2, P4A-bH; assay: two-hybrid library CCNG1;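 further: natural log of median RNA to DNA barcode read ratio; higher means stronger binding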
T2 chain: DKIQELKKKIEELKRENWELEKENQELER

[3] = biological target: T3, P5A-bH; assay: two-hybrid library CCNG1;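 further: natural log of median RNA to DNA barcode read ratio; higher means stronger binding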
T3 chain: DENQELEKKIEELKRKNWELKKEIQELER

[4] = biological target: T4, P6A-bH; assay: two-hybrid library CCNG1;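 further: natural log of median RNA to DNA barcode read ratio; higher means stronger binding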
T4 chain: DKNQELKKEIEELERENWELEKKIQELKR

[5] = biological target: T5, P7A-bH; assay: two-hybrid library CCNG1
T5 chain: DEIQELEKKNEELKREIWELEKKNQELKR

[6] = biological target: T6, P8A-bH; assay: two-hybrid library CCNG1
T6 chain: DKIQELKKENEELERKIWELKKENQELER

[7] = biological target: T7, P9A-bH; assay: two-hybrid library CCNG1
T7 chain: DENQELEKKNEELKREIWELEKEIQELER

[8] = biological target: T8, 4H3112-AA; assay: two-hybrid library CCmax
T8 chain: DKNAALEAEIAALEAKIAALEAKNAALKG

[9] = biological target: T9, 4H317-AA; assay: two-hybrid library CCmax; conditions: mean of both orientations
T9 chain: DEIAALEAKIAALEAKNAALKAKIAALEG

[10] = biological target: T10, 4H3343-AA; assay: two-hybrid library CCmax; conditions: mean of both orientations
T10 chain: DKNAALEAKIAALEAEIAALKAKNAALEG

[11] = biological target: T11, 4H335-AA; assay: two-hybrid library CCmax; conditions: mean of both orientations
T11 chain: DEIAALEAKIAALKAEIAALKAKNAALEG

[12] = biological target: T12, 4H3354-AA; assay: two-hybrid library CCmax; conditions: mean of both orientations
T12 chain: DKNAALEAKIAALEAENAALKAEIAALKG

[13] = biological target: T13, 4H342-AA; assay: two-hybrid library CCmax; conditions: mean of both orientations
T13 chain: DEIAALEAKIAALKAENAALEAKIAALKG

[14] = biological target: T14, 4H3427-AA; assay: two-hybrid library CCmax; conditions: mean of both orientations
T14 chain: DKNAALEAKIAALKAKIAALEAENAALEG

[15] = biological target: T15, 4H3606-AA; assay: two-hybrid library CCmax; conditions: mean of both orientations
T15 chain: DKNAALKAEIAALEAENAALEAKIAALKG

[16] = biological target: T16, 4H3627-AA; assay: two-hybrid library CCmax; conditions: mean of both orientations
T16 chain: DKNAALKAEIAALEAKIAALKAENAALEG

[17] = biological target: T17, 4H3655-AA; assay: two-hybrid library CCmax; conditions: mean of both orientations
T17 chain: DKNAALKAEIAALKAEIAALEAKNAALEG

[18] = biological target: T18, 4H3782-AA; assay: two-hybrid library CCmax; conditions: mean of both orientations
T18 chain: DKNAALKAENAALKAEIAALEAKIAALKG

[19] = biological target: T19, 4H3844-AA; assay: two-hybrid library CCmax; conditions: mean of both orientations
T19 chain: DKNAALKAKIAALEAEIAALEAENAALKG

[20] = biological target: T20, 4H3855-AA; assay: two-hybrid library CCmax; conditions: mean of both orientations
T20 chain: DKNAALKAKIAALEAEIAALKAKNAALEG

[21] = biological target: T21, 4H3921-AA; assay: two-hybrid library CCmax; conditions: mean of both orientations
T21 chain: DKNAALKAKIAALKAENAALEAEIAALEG

[22] = biological target: T22, 4H4001-AA; assay: two-hybrid library CCmax; conditions: mean of both orientations
T22 chain: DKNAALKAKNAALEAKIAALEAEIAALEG

[23] = biological target: T23, 4H429-AA; assay: two-hybrid library CCmax; conditions: mean of both orientations
T23 chain: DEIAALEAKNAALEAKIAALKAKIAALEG

[24] = biological target: T24, 4H454-AA; assay: two-hybrid library CCmax; conditions: mean of both orientations
T24 chain: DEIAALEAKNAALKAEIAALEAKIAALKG

[25] = biological target: T25, 4H48-AA; assay: two-hybrid library CCmax; conditions: mean of both orientations
T25 chain: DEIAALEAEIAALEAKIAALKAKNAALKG

[26] = biological target: T26, 4H566-AA; assay: two-hybrid library CCmax; conditions: mean of both orientations
T26 chain: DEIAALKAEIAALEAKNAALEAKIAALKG

[27] = biological target: T27, 4H568-AA; assay: two-hybrid library CCmax; conditions: mean of both orientations
T27 chain: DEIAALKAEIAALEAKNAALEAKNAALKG

[28] = biological target: T28, 4H605-AA; assay: two-hybrid library CCmax; conditions: mean of both orientations
T28 chain: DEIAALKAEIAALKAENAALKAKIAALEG

[29] = biological target: T29, 4H678-AA; assay: two-hybrid library CCmax; conditions: mean of both orientations
T29 chain: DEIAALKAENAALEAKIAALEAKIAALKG

[30] = biological target: T30, 4H687-AA; assay: two-hybrid library CCmax; conditions: mean of both orientations
T30 chain: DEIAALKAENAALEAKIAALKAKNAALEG

[31] = biological target: T31, 4H717-AA; assay: two-hybrid library CCmax; conditions: mean of both orientations
T31 chain: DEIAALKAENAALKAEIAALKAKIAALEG

[32] = biological target: T32, 4H780-AA; assay: two-hybrid library CCmax; conditions: mean of both orientations
T32 chain: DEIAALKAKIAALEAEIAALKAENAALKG

[33] = biological target: T33, 4H794-AA; assay: two-hybrid library CCmax; conditions: mean of both orientations
T33 chain: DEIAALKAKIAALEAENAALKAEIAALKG

[34] = biological target: T34, 4H797-AA; assay: two-hybrid library CCmax; conditions: mean of both orientations
T34 chain: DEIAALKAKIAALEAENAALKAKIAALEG

[35] = biological target: T35, 4H881-AA; assay: two-hybrid library CCmax; conditions: mean of both orientations
T35 chain: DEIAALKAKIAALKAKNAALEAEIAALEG

[36] = biological target: T36, 4H883-AA; assay: two-hybrid library CCmax; conditions: mean of both orientations
T36 chain: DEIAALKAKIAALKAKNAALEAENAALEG

[37] = biological target: T37, 4H906-AA; assay: two-hybrid library CCmax; conditions: mean of both orientations
T37 chain: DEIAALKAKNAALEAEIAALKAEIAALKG

[38] = biological target: T38, 4H918-AA; assay: two-hybrid library CCmax; conditions: mean of both orientations
T38 chain: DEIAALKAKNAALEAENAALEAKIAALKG

[39] = biological target: T39, 4H953-AA; assay: two-hybrid library CCmax; conditions: mean of both orientations
T39 chain: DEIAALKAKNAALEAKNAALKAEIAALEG

[40] = biological target: T40, 4H967-AA; assay: two-hybrid library CCmax; conditions: mean of both orientations
T40 chain: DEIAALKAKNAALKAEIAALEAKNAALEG

[41] = biological target: T41, 4H993-AA; assay: two-hybrid library CCmax; conditions: mean of both orientations
T41 chain: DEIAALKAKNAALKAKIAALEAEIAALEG

- interaction score [1]: -1.95
- interaction score [2]: 0.539
- interaction score ([3]; mean of both orientations): -1.23
- interaction score [4]: -0.802
- interaction score [5]: -0.557
- interaction score [6]: 0.132
- interaction score [7]: -1.02
Binder: DKIQELKKKNEELKRKNWELKKKIQELKR [P2A-bH]

- interaction score [1]: -1.59
- interaction score [2]: -0.5
- interaction score [3]: -0.798
- interaction score [4]: -0.616
- interaction score [5]: -0.716
- interaction score [6]: -0.232
- interaction score [7]: -1.36
Binder: DEIQELEKENEELERENWELEKEIQELER [P1A-bH]

- interaction score [1]: -0.68
- interaction score [2]: 1.77
- interaction score [3]: 0.779
- interaction score [4]: 0.553
- interaction score [5]: 0.468
- interaction score [6]: -1.03
- interaction score [7]: 0.465
Binder: DEIQELEKEIEELERKNWELKKKNQELKR [P3A-bH]

- interaction score [8]: -0.157
- interaction score [9]: -1.3
- interaction score [10]: -1.15
- interaction score [11]: 0.64
- interaction score [12]: -1.66
- interaction score [13]: -0.739
- interaction score [14]: 2.07
- interaction score [15]: -0.965
- interaction score [16]: 0.212
- interaction score [17]: -0.414
- interaction score [18]: -0.975
- interaction score [19]: 0.837
- interaction score [20]: -0.622
- interaction score [21]: -1.01
- interaction score [22]: -1.09
- interaction score [23]: 0.94
- interaction score [24]: -0.722
- interaction score [25]: 0.163
- interaction score [26]: -1.22
- interaction score [27]: -0.907
- interaction score [28]: -1.38
- interaction score [29]: -1.37
- interaction score [30]: -0.855
- interaction score [31]: -1.33
- interaction score [32]: -1.01
- interaction score [33]: -1.51
- interaction score [34]: -1.25
- interaction score [35]: -0.621
- interaction score [36]: 0.194
- interaction score [37]: -1.29
- interaction score [38]: -1.44
- interaction score [39]: -1.62
- interaction score [40]: -1.38
- interaction score [41]: -0.58
Binder: DKNAALEAEIAALEAKIAALEAKNAALKG [4H3112-AA]
